From PMC9232852 (2022)

T1: BTN2A1 ID271 (Homo sapiens, UniProt Q7KYR7)
T1 chain: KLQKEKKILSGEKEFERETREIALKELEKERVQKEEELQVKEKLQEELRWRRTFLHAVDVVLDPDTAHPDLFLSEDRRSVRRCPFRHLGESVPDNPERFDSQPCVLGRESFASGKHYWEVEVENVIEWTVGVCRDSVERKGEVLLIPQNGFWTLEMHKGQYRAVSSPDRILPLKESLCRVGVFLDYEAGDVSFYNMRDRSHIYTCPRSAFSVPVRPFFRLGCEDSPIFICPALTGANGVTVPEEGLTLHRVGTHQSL

T2: BTN2A1 ID309 (Homo sapiens, UniProt Q7KYR7)
T2 chain: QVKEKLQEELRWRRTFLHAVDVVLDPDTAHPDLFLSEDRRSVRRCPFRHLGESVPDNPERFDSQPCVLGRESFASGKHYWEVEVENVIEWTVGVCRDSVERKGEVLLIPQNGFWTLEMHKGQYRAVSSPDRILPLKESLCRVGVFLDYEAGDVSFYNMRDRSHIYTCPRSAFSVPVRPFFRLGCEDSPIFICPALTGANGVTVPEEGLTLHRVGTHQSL

B1: BTN3A1 B30.2 (protein)
chain: not shown
modifications: HMBPP
B2: BTN3A1 BFI (full intracellular domain) (protein)
chain: not shown
modifications: HMBPP

Key:
[1] = target: T1, BTN2A1 ID271; assay: ITC
[2] = target: T2, BTN2A1 ID309; assay: ITC

Binder	Kd [1] [nM]	Kd [2] [nM]
B1	463	–
B2	886	674
